In assay [1] the target is His-tagged NanoLuc-PP1α-HaloTag sensor (PP1-WT) (human, UniProt P62136 1-330, NanoBRET 618 ligand on the HaloTag). Nature of the assay: FRET or BRET.
The target of the next assay is LgBiT-PP1α^WT (human, UniProt P62136 1-330). Nature of the assay: split reporter.
The next assay deals with LgBiT-PP1α^ΔC (human, UniProt P62136 1-298). Nature of the assay: split reporter.
LgBiT-PP1α^ΔC, sequence (P62136 1-298, stated change not applied): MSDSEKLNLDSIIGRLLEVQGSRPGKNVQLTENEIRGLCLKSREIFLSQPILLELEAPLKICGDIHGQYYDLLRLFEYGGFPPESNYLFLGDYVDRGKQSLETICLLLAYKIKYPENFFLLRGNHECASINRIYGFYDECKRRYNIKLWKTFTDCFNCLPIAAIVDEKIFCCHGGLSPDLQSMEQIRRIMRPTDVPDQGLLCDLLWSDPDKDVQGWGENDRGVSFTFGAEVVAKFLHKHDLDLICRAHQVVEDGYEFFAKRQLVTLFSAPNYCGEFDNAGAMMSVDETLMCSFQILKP

His-tagged NanoLuc-PP1α-HaloTag sensor (PP1-WT), sequence (P62136 whole entry): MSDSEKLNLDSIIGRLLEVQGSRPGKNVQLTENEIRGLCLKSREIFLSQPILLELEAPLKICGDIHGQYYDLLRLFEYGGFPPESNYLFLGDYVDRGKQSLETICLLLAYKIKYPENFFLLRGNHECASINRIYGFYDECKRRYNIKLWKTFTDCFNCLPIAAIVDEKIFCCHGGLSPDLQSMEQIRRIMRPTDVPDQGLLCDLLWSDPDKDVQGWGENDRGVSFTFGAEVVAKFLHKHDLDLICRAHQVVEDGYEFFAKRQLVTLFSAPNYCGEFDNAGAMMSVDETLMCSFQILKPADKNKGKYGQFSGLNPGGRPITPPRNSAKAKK
LgBiT-PP1α^WT, sequence (P62136 whole entry): as above

B1: HIS-ASPP1-(867–1090) (domain or fragment)
chain: RTNLKKPNSERTGHGLRVRFNPLALLLDASLEGEFDLVQRIIYEVEDPSKPNDEGITPLHNAVCAGHHHIVKFLLDFGVNVNAADSDGWTPLHCAASCNSVHLCKQLVESGAAIFASTISDIETAADKCEEMEEGYIQCSQFLYGVQEKLGVMNKGVAYALWDYEAQNSDELSFHEGDALTILRRKDESETEWWWARLGDREGYVPKNLLGLYPRIKPRQRTLA
Regarding B1, the binding result in assay [1] is listed as “binds”.

B2: HIS-R2-WT (natural protein)
chain: MAASTASHRPIKGILKNKTSTTSSMVASAEQPRGNVDEELSKKSQKWDEMNILATYHPADKDYGLMKIDEPSTPYHSMMGDDEDACSDTEATEAMAPDILARKLAAAEGLEPKYRIQEQESSGEEDSDLSPEEREKKRQFEMKRKLHYNEGLNIKLARQLISKDLHDDDEDEEMLETADGESMNTEESNQGSTPSDQQQNKLRSS
For B2, the binding result (in assay [1]; with LgBiT-PP1α^WT; with LgBiT-PP1α^ΔC) was “binds” each time.
